{"source": "paper PMC3701795", "about": "“Heterologous expression and characterization of a malathion-hydrolyzing carboxylesterase from a thermophilic bacterium, Alicyclobacillus tengchongensis” (Biotechnology Letters, 2013)", "test_system": "CC(=O)Oc1ccc2ccccc2c1", "test": "purified protein", "conditions": "pH 7 potassium phosphate, 60 °C, 0.1-0.95 mM substrate"}
{"substance": "D1CarE5 (Alicyclobacillus sp. D-1)", "values": [{"measurement": "Km", "result": 1000, "unit": "µM"}]}
